Source: patent US20180327500A1 (SYMPHOGEN A S, published 2018)
Values belong to the binder of their own block, whether it stands above or below them.

Molecular target: T1, His tagged human MET ECD (Sinobiological) (human, UniProt P08581 25-932)
T1 construct: Bought monovalent antigen; also called human MET antigen; not shown: His tag
Assay: BLI (Octet QK384); antibody captured on anti-human Fc sensors, monovalent MET ECD in solution, 1:1 Langmuir fit

T1 sequence (P08581 25-932): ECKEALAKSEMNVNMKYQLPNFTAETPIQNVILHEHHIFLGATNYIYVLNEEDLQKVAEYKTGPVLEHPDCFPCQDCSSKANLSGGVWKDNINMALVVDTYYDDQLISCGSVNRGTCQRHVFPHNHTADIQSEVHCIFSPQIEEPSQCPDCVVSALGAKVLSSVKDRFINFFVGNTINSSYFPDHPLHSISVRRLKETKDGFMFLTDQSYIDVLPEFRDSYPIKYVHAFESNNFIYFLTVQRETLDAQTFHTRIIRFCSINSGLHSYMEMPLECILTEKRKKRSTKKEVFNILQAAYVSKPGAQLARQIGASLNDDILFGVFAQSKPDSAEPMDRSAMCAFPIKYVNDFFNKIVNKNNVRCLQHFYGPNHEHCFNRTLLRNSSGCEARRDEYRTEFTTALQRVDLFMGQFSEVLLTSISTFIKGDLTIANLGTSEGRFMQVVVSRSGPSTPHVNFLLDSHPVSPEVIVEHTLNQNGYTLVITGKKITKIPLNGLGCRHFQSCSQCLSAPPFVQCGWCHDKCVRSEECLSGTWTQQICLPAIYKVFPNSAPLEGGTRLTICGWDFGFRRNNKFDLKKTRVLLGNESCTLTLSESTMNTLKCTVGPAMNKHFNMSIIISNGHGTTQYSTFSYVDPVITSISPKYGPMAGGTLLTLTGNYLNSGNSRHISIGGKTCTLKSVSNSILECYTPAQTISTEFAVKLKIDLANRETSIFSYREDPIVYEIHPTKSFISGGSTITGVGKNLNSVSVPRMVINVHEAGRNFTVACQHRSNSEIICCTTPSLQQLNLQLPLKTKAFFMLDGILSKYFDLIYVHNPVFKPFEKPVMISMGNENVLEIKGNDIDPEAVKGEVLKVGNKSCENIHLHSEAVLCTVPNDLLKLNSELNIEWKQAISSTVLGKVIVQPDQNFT

- Kd: 2.2 nM
- koff: 0.00012 s⁻¹
- kon: 54000 M⁻¹ s⁻¹
B1: chimeric antibody 9006 (antibody, V domains shown)
VH: QIHLGQSGPELKKPGETVKISCKASGYTFTNFRMNWVKQAPGKGLKWMGWINTYTGEPTYVDDLKGRFAFSLETSASTAYLQINNLKNEDMATYFCARKGIARAMDYWGQGTSVTVSS
VL: NIVMTQSPSSLSVSAGEMVTMSCKSSQSLLDSGNQKNYLAWYQQKPGQPPQLLIFGASTRESGVPDRFTGSGSGTDFTLTVSSVQAEDLAVYYCQNDHSYPYTFGGGTKLEIK

- Kd: 0.6 nM
- koff: 0.00011 s⁻¹
- kon: 190000 M⁻¹ s⁻¹
B2: chimeric antibody 9338 (antibody, V domains shown)
VH: QVQLQQPGAELAKPGASVRMSCKASGYTFTSYWMHWVKQRPGQGLEWIGYINPSSGHIENNQKFKDKATLTADKSSSTAYMQLSSLTFEDSAVYYCARGRFAYWGQGTLVTVSS
VL: DIVMTQSPAIMSASPGEKVTLTCSASSSVSSGYLYWYQQKPGSSPKLWIYSTSNLASGVPARFSGSGSGTSYSLTVNSMEAEDAASYFCHQWSSYPFTFGSGTKLELK
